Reference: patent US20090166224A1 (published 2009)

Experiments:
Assay in all cases: human serum on Con A/WGA/Jacalin column, lectin-specific displacer fraction, LC-MS/MS; grade = SEQUEST rank group (+ = ranks 1-5, ++++ = 16-20)
[1] = biological target: T1, CARBOXYPEPTIDASE N 83 KDA CHAIN (human, UniProt P22792 22-545)
T1 construct: from human serum; also called CBP8
T1 sequence (looked up): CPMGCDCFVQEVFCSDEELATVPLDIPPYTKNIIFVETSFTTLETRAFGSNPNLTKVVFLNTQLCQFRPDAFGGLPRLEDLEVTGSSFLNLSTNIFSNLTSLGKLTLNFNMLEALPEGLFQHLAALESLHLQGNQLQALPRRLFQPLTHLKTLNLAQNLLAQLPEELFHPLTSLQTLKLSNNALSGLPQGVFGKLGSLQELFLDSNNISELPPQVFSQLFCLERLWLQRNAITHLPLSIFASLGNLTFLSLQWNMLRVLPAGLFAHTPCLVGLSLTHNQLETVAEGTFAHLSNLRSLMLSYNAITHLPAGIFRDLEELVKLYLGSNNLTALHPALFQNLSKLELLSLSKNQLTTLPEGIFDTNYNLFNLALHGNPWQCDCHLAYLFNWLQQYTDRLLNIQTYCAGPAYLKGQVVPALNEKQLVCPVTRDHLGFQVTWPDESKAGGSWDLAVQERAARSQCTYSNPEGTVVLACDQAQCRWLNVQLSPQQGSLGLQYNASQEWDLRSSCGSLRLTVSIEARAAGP

[2] = biological target: T2, IG ALPHA-1 CHAIN C REGION (human, UniProt P01876-1 1-353)
T2 construct: domain: C region; Polyclonal serum IgA, identified through its constant region; variable regions and light chains not defined; also called ALC1
T2 sequence (P01876 other isoform, or with tags, fused parts or gaps limits assumed): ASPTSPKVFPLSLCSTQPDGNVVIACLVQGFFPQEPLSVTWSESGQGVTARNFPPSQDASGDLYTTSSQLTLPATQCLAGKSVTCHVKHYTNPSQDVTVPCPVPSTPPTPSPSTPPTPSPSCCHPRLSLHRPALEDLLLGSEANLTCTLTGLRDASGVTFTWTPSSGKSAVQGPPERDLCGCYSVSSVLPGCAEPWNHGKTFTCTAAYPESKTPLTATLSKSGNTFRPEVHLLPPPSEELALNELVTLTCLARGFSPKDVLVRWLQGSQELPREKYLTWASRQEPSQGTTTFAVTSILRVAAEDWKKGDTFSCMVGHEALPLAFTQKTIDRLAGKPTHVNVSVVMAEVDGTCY

[3] = biological target: T3, INTER-ALPHA-TRYPSIN INHIBITOR HEAVY CHAIN H1 (human, UniProt P19827 35-672)
T3 construct: from human serum; also called ITH1
T3 sequence (looked up): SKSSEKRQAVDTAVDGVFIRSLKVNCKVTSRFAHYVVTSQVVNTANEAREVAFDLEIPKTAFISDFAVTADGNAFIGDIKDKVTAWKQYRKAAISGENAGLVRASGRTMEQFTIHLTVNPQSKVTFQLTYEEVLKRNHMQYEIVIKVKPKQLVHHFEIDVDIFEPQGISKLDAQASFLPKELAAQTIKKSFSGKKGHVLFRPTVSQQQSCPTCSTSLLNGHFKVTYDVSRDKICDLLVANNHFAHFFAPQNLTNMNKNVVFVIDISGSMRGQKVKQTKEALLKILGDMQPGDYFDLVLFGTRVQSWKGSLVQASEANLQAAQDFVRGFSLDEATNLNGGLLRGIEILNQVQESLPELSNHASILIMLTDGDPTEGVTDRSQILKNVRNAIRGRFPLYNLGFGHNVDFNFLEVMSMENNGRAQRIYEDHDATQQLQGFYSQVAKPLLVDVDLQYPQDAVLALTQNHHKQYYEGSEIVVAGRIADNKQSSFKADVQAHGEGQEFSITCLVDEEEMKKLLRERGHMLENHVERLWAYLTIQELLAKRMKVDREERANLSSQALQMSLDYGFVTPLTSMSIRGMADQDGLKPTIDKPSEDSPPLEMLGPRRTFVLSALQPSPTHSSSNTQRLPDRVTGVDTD

HEMOPEXIN = biological target: T4, HEMOPEXIN (human, UniProt P02790 24-462)
T4 construct: from human serum
T4 sequence (looked up): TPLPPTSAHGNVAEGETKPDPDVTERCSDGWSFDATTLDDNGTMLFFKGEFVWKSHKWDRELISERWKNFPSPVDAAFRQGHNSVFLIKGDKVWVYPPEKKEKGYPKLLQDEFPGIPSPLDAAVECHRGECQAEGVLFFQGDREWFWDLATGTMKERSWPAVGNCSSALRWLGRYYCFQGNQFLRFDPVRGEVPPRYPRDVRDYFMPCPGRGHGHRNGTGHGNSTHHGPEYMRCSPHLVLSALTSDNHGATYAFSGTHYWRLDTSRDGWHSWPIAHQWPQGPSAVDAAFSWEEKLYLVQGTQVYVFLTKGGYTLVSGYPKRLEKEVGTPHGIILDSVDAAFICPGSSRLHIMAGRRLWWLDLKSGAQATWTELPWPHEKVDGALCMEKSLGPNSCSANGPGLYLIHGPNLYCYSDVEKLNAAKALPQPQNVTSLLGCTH

[4] = biological target: T5, HAPTOGLOBIN-RELATED PROTEIN (human, UniProt P00739 1-348, limits assumed)
T5 construct: from human serum; also called HPTR
T5 sequence (looked up): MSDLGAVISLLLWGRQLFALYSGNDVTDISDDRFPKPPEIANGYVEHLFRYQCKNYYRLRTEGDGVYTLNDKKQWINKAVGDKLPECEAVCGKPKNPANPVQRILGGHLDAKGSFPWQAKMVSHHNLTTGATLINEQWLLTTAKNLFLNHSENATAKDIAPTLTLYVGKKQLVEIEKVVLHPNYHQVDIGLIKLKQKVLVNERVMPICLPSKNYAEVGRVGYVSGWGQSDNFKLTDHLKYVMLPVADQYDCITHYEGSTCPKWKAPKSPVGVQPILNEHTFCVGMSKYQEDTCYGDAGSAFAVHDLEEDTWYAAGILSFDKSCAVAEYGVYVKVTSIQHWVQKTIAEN

B1: wheat germ agglutinin (WGA), agarose-bound (other, UniProt P10968 27-197, looked up)
chain: QRCGEQGSNMECPNNLCCSQYGYCGMGGDYCGKGCQNGACWTSKRCGSQAGGATCTNNQCCSQYGYCGFGAEYCGAGCQGGPCRADIKCGSQAGGKLCPNNLCCSQWGFCGLGSEFCGGGCQSGACSTDKPCGKDAGGRVCTNNYCCSKWGSCGIGPGYCGAGCQSGGCDG
modifications: immobilized on agarose
notes: Lectin; released with N-acetyl-glucosamine; Coated on the plate in the lectin ELISA
SEQUEST ranking (relative abundance in the WGA displacement fraction) [1]: 6 to 10 rank | SEQUEST ranking (relative abundance in the WGA displacement fraction) [2]: 1 to 5 rank | SEQUEST ranking (relative abundance in the WGA displacement fraction) [3]: 11 to 15 rank | SEQUEST ranking (relative abundance in the WGA displacement fraction) (HEMOPEXIN): 1 to 5 rank | SEQUEST ranking (relative abundance in the WGA displacement fraction) [4]: 1 to 5 rank
